Data set [1] can be described thus: kcat, KM and Ki determination, rate vs [DMAPP], fit to uncompetitive substrate inhibition. Type of data set: biochemical. As for the experimental part:
10 uL of purified enzyme was incubated with DMAPP at concentrations ranging from 1.25 to 20 mM DMAPP in a buffer containing 50 mM Tris, 50 mM MgCl2 and 50 mM NaCl (pH=8) to a final volume of 100 uL for 15 min. at 30 C in gas tight 2 mL vials. Reactions were terminated with the addition of 100 uL of 250 mM EDTA, pH=8. Samples were analyzed by GC-MS to determine the concentration of isoprene in the headspace of the vials. Data were analyzed using Kaleidagraph and fit to following equation for uncompetitive substrate inhibition: rate/E=kcat*S/(KM+S*(1+S/Ki)). All kinetic assays were performed in triplicate.
Protein concentration was determined by measuring the absorbance of each protein solution at 280 nm on a Helwlett Pachard 8453 UV-Vis spectrophotometer and converting the absorbance to protein concentration using the extinction coefficient as determined on the Expasy website (Gasteiger E., Hoogland C., Gattiker A., Duvaud S., Wilkins M. R., Appel R. D., Bairoch A.; Protein Identification and Analysis Tools on the ExPASy Server; (In) John M. Walker (ed): The Proteomics Protocols Handbook, Humana Press (2005). pp. 571-607). The protein concentrations of isoprene synthase variants assayed for KM and kcat determination were verified by comparative gel electrophoresis of a dilution series of each protein (FIG. 61).

Data set [2] can be described thus: Specific activity measurement of purified isoprene synthase variants (4 mM DMAPP, 30 C, GC-MS headspace). Type of data set: biochemical. Put shortly: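 Ni-affinity-purified, buffer-exchanged enzyme incubated with 4 mM DMAPP and 50 mM MgCl2 in 50 mM Tris, 50 mM NaCl, pH 8, for 15 min at 30 C in sealed vials; stopped with EDTA. Headspace isoprene quantified by GC-MS, in triplicate; protein concentration from A280 with calculated extinction coefficient.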

Data set [3] can be described thus: Differential scanning calorimetry, thermal midpoint (Tm). Type of data set: physicochemical. The protocol: Excessive heat capacity curves were measured using an ultrasensitive scanning high-throughput microcalorimeter, VP-Cap DSC (MicroCal, Inc., Northampton, Mass.). The standard procedure for Differential Scanning calorimetry (DSC) measurements and the theory of the technique is previously published (Freire, E. (1995) Differential Scanning calorimetry Methods. Mol. Biol. 41, 191-218). Approximately 500 μL of 0.5 mg/ml IspS (from strain MD09-167) or variant IspS-L494P (from strain DW399) and IspS-T536F (from strain DW363) (in the absence or presence of 5 mM sodium pyrophosphate) were scanned over a 30-100° C. temperature range. The same sample was then re-scanned to check the reversibility of the process. For IspS the thermal unfolding process was irreversible. The buffer used was 50 mM HEPES, 5 mM MgCl2, pH 7.4, with and without 5 mM sodium pyrophosphate. Sodium pyrophosphate was included for its ability to function as a substrate analog. A 200° C./hr scan rate was used to minimize any artifacts that may result from aggregation. The thermal midpoint (Tm) of the DSC curves was used as an indicator of the thermal stability. The thermal melting curves and the melting points for the wild type IspS and variants are shown in FIG. 56 (buffer only) and 57 (with 5 mM sodium pyrophosphate).

Data set [4] can be described thus: Isoprene synthase activity vs temperature (DMAPP assay, 25 to 80 C). It is filed as biochemical. As to conditions: FIG. 58. As for the experimental part:
The activity of wild type IspS and variants IspS-L494P and IspS-T536F was measured across a spectrum of temperatures. Individual DMAPP assays were performed at 5° C. intervals from 25° C. to 80° C. by incubating the vials in a pre-heated water bath.
The following reaction mixture was used for the DMAPP assay: 25 μL purified protein, 5 μL MgCl2 (1 M), 5 μL DMAPP (100 mM), and 65 μL 100 mM Tris pH 8, 100 mM NaCl for a total volume of 100 μL. The reaction is performed at the specified temperature for 15 minutes in a gas tight 1.8 mL GC tube. Reactions are terminated by the addition of 100 μL 500 mM EDTA (pH 8). The amount of isoprene produced was measured by GC/MS.
The analysis was performed using an Agilent 6890 GC/MS system interfaced with a CTC Analytics CombiPAL autosampler operating in headspace mode. An Agilent HP-5MS GC/MS column (30 m×0.25 mm; 0.25 μm film thickness) was used for separation of analytes. The sampler was set up to inject 500 μL of headspace gas. The GC/MS method utilized helium as the carrier gas at a flow of 1 ml/min. The injection port was held at 250° C. with a split ratio of 50:1. The oven temperature was held at 37° C. for the […] duration of the analysis. The Agilent 5793N mass selective detector was run in single ion monitoring (SIM) mode on m/z 67. The detector was switched off from 1.4 to 1.7 minutes to allow the elution of permanent gases.

The mark [5] stands for this setting: buffer alone (50 mM HEPES, 5 mM MgCl2, pH 7.4).
[6] abbreviates: in the presence of 5 mM sodium pyrophosphate.

Where a chain is given by its changes, count along the chain named. Numbers in names are those of the source.

B1: L494P: P. alba IspS variant L494P; pDW101, strain DW399, SEQ ID NO: 69 (protein)
chain: MEARRSANYEPNSWDYDYLLSSDTDESIEVYKDKAKKLEAEVRREINNEKAEFLTLLELIDNVQRLGLGYRFESDIRGALDRFVSSGGFDAVTKTSLHGTALSFRLLRQHGFEVSQEAFSGFKDQNGNFLENLKEDIKAILSLYEASFLALEGENILDEAKVFAISHLKELSEEKIGKELAEQVNHALELPLHRRTQRLEAVWSIEAYRKKEDANQVLLELAILDYNMIQSVYQRDLRETSRWWRRVGLATKLHFARDRLIESFYWAVGVAFEPQYSDCRNSVAKMFSFVTIIDDIYDVYGTLDELELFTDAVERWDVNAINDLPDYMKLCFLALYNTINEIAYDNLKDKGENILPYLTKAWADLCNAFLQEAKWLYNKSTPTFDDYFGNAWKSSSGPLQLVFAYFAVVQNIKKEEIENLQKYHDTISRPSHIFRLCNDLASASAEIARGETANSVSCYMRTKGISEELATESVMNLIDETWKKMNKEKLGGSPFAKPFVETAINLARQSHCTYHNGDAHTSPDELTRKRVLSVITEPILPFERENLYFQGLEHHHHHH
Turning to B1, the “KM compared to WT isoprene synthase, in words” value in data set [1] (1.25 to 20 mM DMAPP, 30 C) was “less than the KM of the WT”. Moreover, in data set [1] (1.25 to 20 mM DMAPP, 30 C), the “rate profile vs [DMAPP]” value is recorded as “uncompetitive substrate inhibition by DMAPP”. Also, the Km in data set [1] (1.25 to 20 mM DMAPP, 30 C, average of three trials ± one standard deviation) amounted to 3.6 ± 0.5 mM. Also, the kcat in data set [1] (1.25 to 20 mM DMAPP, 30 C, average of three trials ± one standard deviation, in s^-1 (unit assumed)) worked out at 2.1 ± 0.1. Further, the “kcat compared to WT isoprene synthase, in words” value in data set [1] (1.25 to 20 mM DMAPP, 30 C, listed as β) is listed as “greater than the kcat of the WT”. Further, the Ki in data set [1] (uncompetitive substrate inhibition by DMAPP, average of three trials ± one standard deviation, read-out: KiDMAPP) was found to be 13 ± 1 mM. For the same molecule, the S.A. in data set [2] (50 mM NaCl, 50 mM Tris pH = 8, 30° C.) is on record as 950 ± 40 nmol/mg/min. In data set [2] (50 mM NaCl, 50 mM Tris pH = 8, 30° C., ratio to WT), the “Variant S.A./WT S.A.” value is reported as 2.0. Besides, the “specific activity compared to WT isoprene synthase, in words” value in data set [2] (30 C, purified enzyme) is “increased specific activity”. The “specific activity, times/fold greater than WT” value amounted to 2.0 in data set [2] (30 C, purified enzyme, listed as P) and 2 in data set [2] (30 C, purified enzyme, listed as β). The entries for the “increase in the Tm vs wild type” value in data set [3] (buffer alone) and in data set [3] (setting [6]) were 2.1 °C and 2.3 °C, respectively. Moreover, the figures for the “thermal melting point (Tm)” value in data set [3] (setting [5]) and in data set [3] (setting [6]) were 60.4 °C and 57.0 °C, respectively.

B2: T536F: P. alba IspS variant T536F; pDW87, strain DW363, SEQ ID NO: 95 (protein)
chain: B1 chain with P494L, T536F
Take B2: in data set [4], the “temperature activity ratio curve (specific activity at a given temperature / at 35° C.), in words” value is “increased activity and thermostability”. The “increase in the Tm vs wild type” value in data set [3] (buffer alone) came out at 3.8 °C; in data set [3] (setting [6]) it was 4.7 °C. The results for the “thermal melting point (Tm)” value in data set [3] (setting [5]) and in data set [3] (setting [6]) were 62.1 °C and 59.4 °C, respectively.

Broadly, the Km is the substrate concentration at which the rate is half of its maximum.

The values are drawn from patent US9175313B2, “Three-dimensional structure of isoprene synthase and its use thereof for generating variants” (Danisco US Inc., priority 2009, dated 2015).
